Test results published in patent publication US7429385.

Target: MOLT4 receptor (putative E2 receptor on human lymphoma T-cells, MOLT-4 cells) (human)
Experiment: cytofluorimetric binding assay on MOLT-4 cells

intracellularly produced truncated HCV E2 terminating at amino acid 715 (E2715), from CHO cell lysate (from UniProt P26664 384-715)
fold more efficient binding to MOLT-4 cells than secreted E2: 30 fold
